Molecular target: ACE2 receptor on ACE2-expressing HEK 293T cells (UniProt Q9BYF1)
Experiment: flow cytometry on cells

UniProt Q9BYF1, sequence (Q9BYF1 18-805): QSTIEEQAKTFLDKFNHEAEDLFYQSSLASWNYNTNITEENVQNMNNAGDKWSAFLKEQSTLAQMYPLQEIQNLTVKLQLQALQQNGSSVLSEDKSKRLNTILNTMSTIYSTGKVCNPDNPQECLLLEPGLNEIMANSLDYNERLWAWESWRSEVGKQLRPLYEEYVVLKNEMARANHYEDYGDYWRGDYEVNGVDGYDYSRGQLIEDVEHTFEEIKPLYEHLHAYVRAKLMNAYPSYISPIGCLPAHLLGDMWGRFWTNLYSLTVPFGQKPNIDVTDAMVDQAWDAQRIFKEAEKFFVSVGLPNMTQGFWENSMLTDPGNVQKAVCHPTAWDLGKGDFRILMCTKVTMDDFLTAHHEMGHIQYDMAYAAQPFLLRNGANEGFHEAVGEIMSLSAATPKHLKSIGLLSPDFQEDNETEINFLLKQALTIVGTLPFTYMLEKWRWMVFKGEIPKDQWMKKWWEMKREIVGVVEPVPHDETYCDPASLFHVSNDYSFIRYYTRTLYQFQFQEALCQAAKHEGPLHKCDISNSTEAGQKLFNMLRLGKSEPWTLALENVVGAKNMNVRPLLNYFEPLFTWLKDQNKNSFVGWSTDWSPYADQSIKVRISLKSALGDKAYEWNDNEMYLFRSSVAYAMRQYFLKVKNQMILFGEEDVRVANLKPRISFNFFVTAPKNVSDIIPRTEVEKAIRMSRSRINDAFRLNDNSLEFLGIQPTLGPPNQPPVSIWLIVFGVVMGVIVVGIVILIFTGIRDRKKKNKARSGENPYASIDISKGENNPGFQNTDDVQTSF

Question: Which fold increase in median fluorescence intensity (corrected for Cy5 brightness per RBD) against monomeric RBD-Cy5 does the source give for “DNA-VLP-Cy5-30x (icosahedral DNA origami displaying 30 copies of the SARS-CoV-2 RBD and 5 copies of Cy5)” here?
Answer: 10 fold

Source: PMC10828404
